Results on 1 protein are retold here after PMC3898896 (Journal of Molecular Biology, 2013).

One may read the stoichiometry N as the number of molecules, sites or subunits per partner or assembly.

This data set concerns the molecule itself. As to the kind of experiment: crystal structure.

B1: N-terminal dimerization domain of S. pombe Cdc23 (Cdc23^N19-302,Y302A) (domain or fragment, UniProt O94556 19-302, looked up)
chain: QLREIRNCLLKCISECSERGLVYAVRWAAEMLNGMNPIEMEHIPFSSTPTGEFDLDPDMANEKLLEVEEKNIYLLAKSYFDCKEFERAAYTLQNCKSSKSIFLRLYSKYLAGEKKSEEENETLLNTNLTLSSTNREFYYISEVLESLHYQGNKDPYLLYLSGVVYRKRKQDSKAIDFLKSCVLKAPFFWSAWLELSLSIDSLETLTTVVSQLPSTHIMTKIFYVYASHELHQVNSSAYEKLAEAEIIFPNSRYLKTQRALLTYDSRDFDEAESLFENILTNDPA
As to B1, the “stoichiometry N” value was 2.
